Laboratory results as given in patent US20230303680A1 (UNIVERSIT T Z RICH, published 2023).
Numbering of substitutions follows the chain as printed. In names and notes the source's numbering stands.

T1: mouse IL-2 (mouse, UniProt P04351 21-169)
T1 sequence (looked up): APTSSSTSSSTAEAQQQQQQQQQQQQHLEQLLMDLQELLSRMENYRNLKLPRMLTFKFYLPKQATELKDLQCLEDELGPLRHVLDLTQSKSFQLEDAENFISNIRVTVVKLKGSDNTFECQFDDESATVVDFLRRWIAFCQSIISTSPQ

B1: UFKA-22-10 (antibody, human IgG1, V domains shown)
VH: EVQLVESGGGLVKPGGSLRLSCAASGFSFSNYAMSWVRQAPGKGLEWVSLISGGGSYSYYPDSLKGRFTISRDSAKNSLYLQMSSLRAEDTAVYYCARHMGYNDYLAWFAYWGQGTLVTVSS
VL: DIVMTQSPDSLAVSLGERATINCKSSQSLLNSANQKNYLAWYQQKPGQPPKLLIYFASTRESGVPDRFIGSGSGTDFTLTISSLQAEDVAVYYCQQYYSAPPWTFGGGTKVEIK
B2: UFKA-22-01 (antibody, human IgG1, V domains shown)
VH: B1 VH with S84N
VL: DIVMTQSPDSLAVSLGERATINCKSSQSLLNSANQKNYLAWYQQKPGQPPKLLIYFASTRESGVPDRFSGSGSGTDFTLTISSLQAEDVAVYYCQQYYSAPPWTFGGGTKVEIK
B3: UFKA-22-02 (antibody, human IgG1, V domains shown)
VH: B1 VH with S74N
VL: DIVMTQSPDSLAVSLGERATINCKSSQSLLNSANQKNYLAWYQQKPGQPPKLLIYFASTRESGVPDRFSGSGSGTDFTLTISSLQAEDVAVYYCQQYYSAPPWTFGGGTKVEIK
B4: UFKA-22-03 (antibody, human IgG1, V domains shown)
VH: B1 VH
VL: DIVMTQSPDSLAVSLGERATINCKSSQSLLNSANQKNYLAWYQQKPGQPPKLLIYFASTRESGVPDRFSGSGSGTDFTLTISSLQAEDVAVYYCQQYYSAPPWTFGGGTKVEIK
B5: UFKA-22-04 (antibody, human IgG1, V domains shown)
VH: B1 VH with S84N, V93M
VL: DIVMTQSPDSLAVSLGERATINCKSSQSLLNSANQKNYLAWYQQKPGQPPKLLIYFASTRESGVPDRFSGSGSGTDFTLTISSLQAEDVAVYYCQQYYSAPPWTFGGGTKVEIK
B6: UFKA-22-05 (antibody, human IgG1, V domains shown)
VH: B1 VH with S74N, V93M
VL: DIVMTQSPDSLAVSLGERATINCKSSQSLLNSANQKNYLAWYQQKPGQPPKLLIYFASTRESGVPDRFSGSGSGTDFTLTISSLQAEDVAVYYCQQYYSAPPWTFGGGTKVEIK
B7: UFKA-22-06 (antibody, human IgG1, V domains shown)
VH: B1 VH with V93M
VL: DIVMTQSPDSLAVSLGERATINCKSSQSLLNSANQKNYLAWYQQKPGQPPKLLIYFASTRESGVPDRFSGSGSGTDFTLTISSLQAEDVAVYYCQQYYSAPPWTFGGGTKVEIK
B8: UFKA-22-07 (antibody, human IgG1, V domains shown)
VH: B1 VH with S74N, S84N
VL: B1 VL
B9: UFKA-22-08 (antibody, human IgG1, V domains shown)
VH: B1 VH with S84N
VL: B1 VL
B10: UFKA-22-09 (antibody, human IgG1, V domains shown)
VH: B1 VH with S74N
VL: B1 VL
B11: UFKA-22-11 (antibody, human IgG1, V domains shown)
VH: B1 VH with S84N, V93M
VL: B1 VL
B12: UFKA-22-12 (antibody, human IgG1, V domains shown)
VH: B1 VH with S74N, V93M
VL: B1 VL
B13: UFKA-22-13 (antibody, human IgG1, V domains shown)
VH: B1 VH with V93M
VL: B1 VL
B14: UFKA-22-14 (antibody, human IgG1, V domains shown)
VH: B1 VH with S74N, S84N, S122A
VL: B1 VL
B15: UFKA-22-00 (humanized UFKA-20) (antibody, human IgG1, kappa, N297A, V domains shown)
VH: B1 VH with S74N, S84N
VL: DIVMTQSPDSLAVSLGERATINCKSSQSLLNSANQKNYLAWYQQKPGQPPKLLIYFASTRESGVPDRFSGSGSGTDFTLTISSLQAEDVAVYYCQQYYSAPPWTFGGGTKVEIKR
notes: Human IgG1 with N297A
B16: UFKA-20 variant 2+9 (antibody, V domains shown)
VH: EVMLVESGGGLVKPGGSLKLSCAASGFSFSNYAMSWVRQTPERRLEWVALISGGGRYSYYPDSLKGRFTISRDSARNSLYLQMSSLRSEDTAMYYCARHMGKNDYLAWFAYWGQGTLVTVSS
VL: DIVMTQSPSSLAVSVGQKVTMSCKSSQSLLNSANQRNYLAWYQQKPGQSPKLLIYWASTRESGVPDRFIGSGSGTDFTLNISSVQAEDLADYFCQQYYSAPPWTFGGGTKLEIKR
B17: UFKA-20 variant 5+9 (antibody, V domains shown)
VH: B16 VH with M100L, K102H
VL: B16 VL
B18: UFKA-20 (mouse anti-human IL-2 monoclonal antibody) (antibody, V domains shown)
VH: B16 VH with R56S, K102Y
VL: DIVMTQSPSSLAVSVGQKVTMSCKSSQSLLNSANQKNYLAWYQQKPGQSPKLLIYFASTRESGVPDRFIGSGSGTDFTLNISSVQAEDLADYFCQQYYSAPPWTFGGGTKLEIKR
notes: Full mouse heavy and light chains; also called UFKA-20-00; 1+6
B19: 4 + 9 (antibody, V domains shown)
VH: B16 VH with K102H
VL: B16 VL
notes: UFKA-20 variant; also called UFKA-20 variant 4+9; vH chain 4, vL chain 9; copies: 2 + 2
B20: 4 + 10 (antibody, V domains shown)
VH: B16 VH with K102H
VL: B16 VL with S32V, A33S, W56F, A100C
notes: UFKA-20 variant; also called UFKA-20 variant 4+10; vH chain 4, vL chain 10; copies: 2 + 2
B21: 103 + 6 (antibody, V domains shown)
VH: B16 VH with R56S, K102Y, N103A
VL: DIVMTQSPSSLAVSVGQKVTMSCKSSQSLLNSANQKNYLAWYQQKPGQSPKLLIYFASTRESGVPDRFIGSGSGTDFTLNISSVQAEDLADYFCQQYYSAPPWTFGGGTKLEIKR
notes: UFKA-20 variant; copies: 2 + 2
B22: 103 + 9 (antibody, V domains shown)
VH: B16 VH with R56S, K102Y, N103A
VL: B16 VL
notes: as for B21
B23: 105 + 6 (antibody, V domains shown)
VH: B16 VH with R56S, K102Y, Y105A
VL: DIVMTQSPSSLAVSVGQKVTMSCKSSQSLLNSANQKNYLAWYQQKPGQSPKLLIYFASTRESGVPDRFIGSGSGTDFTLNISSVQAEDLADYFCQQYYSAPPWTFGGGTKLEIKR
notes: UFKA-20 variant; also called UFKA-20 variant 105+6; vH chain 105, vL chain 6; copies: 2 + 2
B24: 105 + 9 (antibody, V domains shown)
VH: B16 VH with R56S, K102Y, Y105A
VL: B16 VL
notes: UFKA-20 variant; also called UFKA-20 variant 105+9; vH chain 105, vL chain 9; copies: 2 + 2
B25: F5111 (anti-human IL-2 mAb) (antibody, V domains shown)
VH: QLQLQESGPGLVKPSQTLSLTCTVSGGSISSGGYYWSWIRQHPGKGLEWIGYIYYSGSTYYNPSLKSRVTISVDTSKNQFSLKLSSVTAADTAVYYCARTPTVTGDWFDPWGRGTLVTVSS
VL: NFMLTQPHSVSESPGKTVTISCTRSSGSIASNYVQWYQQRPGSSPTTVIYEDNQRPSGVPDRFSGSIDSSSNSASLTISGLKTEDEADYYCQSYDSSNVVFGGGTKLTVL
B26: JES6-1 (anti-mouse IL-2 mAb) (antibody, V domains shown)
VH: EIQLQQSGPELRRPGSSVKLSCKASGYNITDYLIHWVRHRPEHGLEWIGWIDPEDGETRYAQKFQSKATLTADTSSNAAYMQLSSLTPEDTATYFCARSLDSTYIYPFAYWGQGTLVTVSS
VL: DIVMTQSPFSLAVSEGEMVTINCKSSQSLLSSGNQKNYLAWYQQKPGQSPKLLIYYASTGQSGVPDRFIGSGSGTDFTLTISDVQAEDLADYYCLQHYISPPTFGAGTKLELK
B27: NARA1 (anti-human IL-2 mAb, CD122-biasing) (antibody, V domains shown)
VH: QVQLQQSGAELVRPGTSVKVSCKASGYAFTNYLIEWVKQRPGQGLEWIGVINPGSGGTNYNEKFKGKATLTADKSSSTAYMQLSSLTSDDSAVYFCARWRGDGYYAYFDVWGAGTTVTVSS
VL: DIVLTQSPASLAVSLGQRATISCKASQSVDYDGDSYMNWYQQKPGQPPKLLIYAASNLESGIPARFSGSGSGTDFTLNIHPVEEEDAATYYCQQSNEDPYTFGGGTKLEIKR

Each binder was assayed against T2, human interleukin-2 (recombinant human IL-2, teceleukin) (human, UniProt P60568 21-153) (assay: SPR).
T2 construct: also called hIL-2; rhIL-2
T2 sequence (P60568 21-153 limits assumed): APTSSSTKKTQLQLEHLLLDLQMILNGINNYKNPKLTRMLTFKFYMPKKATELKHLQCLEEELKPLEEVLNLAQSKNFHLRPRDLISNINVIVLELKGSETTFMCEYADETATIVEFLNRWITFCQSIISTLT
B1 showed a Kd of 5.16 nM, a koff of 0.00283 s⁻¹ and a kon of 548000 M⁻¹ s⁻¹.
Work on B2 yielded a Kd of 5.31 nM, a koff of 0.00252 s⁻¹ and a kon of 475000 M⁻¹ s⁻¹.
Binder B3 has a Kd of 5.51 nM, a koff of 0.00227 s⁻¹ and a kon of 412000 M⁻¹ s⁻¹.
B4 gave a Kd of 4.73 nM, a koff of 0.00279 s⁻¹ and a kon of 590000 M⁻¹ s⁻¹.
Work on B5 yielded a Kd of 5.03 nM, a koff of 0.00241 s⁻¹ and a kon of 479000 M⁻¹ s⁻¹.
Binder B6 has a Kd of 4.86 nM, a koff of 0.0022 s⁻¹ and a kon of 452000 M⁻¹ s⁻¹.
Binder B7 has a Kd of 4.45 nM, a koff of 0.00252 s⁻¹ and a kon of 567000 M⁻¹ s⁻¹.
B8 gave a Kd of 5.17 nM, a koff of 0.00251 s⁻¹ and a kon of 486000 M⁻¹ s⁻¹.
For B9, the Kd was 5.33 nM, the koff was 0.00275 s⁻¹ and the kon was 515000 M⁻¹ s⁻¹.
With B10 the Kd was 5.27 nM, the koff was 0.00246 s⁻¹ and the kon was 466000 M⁻¹ s⁻¹.
B11 was tested, and the Kd was 5.31 nM, the koff was 0.00275 s⁻¹ and the kon was 517000 M⁻¹ s⁻¹.
For B12, the Kd was 5.05 nM, the koff was 0.0024 s⁻¹ and the kon was 474000 M⁻¹ s⁻¹.
For B13, the Kd was 4.56 nM, the koff was 0.00277 s⁻¹ and the kon was 607000 M⁻¹ s⁻¹.
Binder B14 has a Kd of 4.3 nM, a koff of 0.0024 s⁻¹ and a kon of 560000 M⁻¹ s⁻¹.
With B15 the Kd was 5.13 nM, the koff was 0.00239 s⁻¹ and the kon was 466000 M⁻¹ s⁻¹.

The binders below were run against T2, human interleukin-2 (recombinant human …) (assay: single-cycle SPR).
With B16 the Kd was 64 nM.
Work on B17 yielded a Kd of 0.186 nM.

The binders below were run against T2, human interleukin-2 (recombinant human …) (assay: single-cycle surface plasmon resonance (SPR)).
B18 showed a Kd of 0.788 nM.
Work on B19 yielded a Kd of 1.02 nM.
In the case of B20, the Kd is reported as 33.6 nM.
With B21 the Kd was 2.09 nM.
Work on B22 yielded a Kd of 2.7 nM.
B23 was tested, and the Kd was 0.429 nM.
Work on B24 yielded a Kd of 0.271 nM.

Biological target: T2, human interleukin-2 (recombinant human …)
Assay: SPR
Remark: another data set of the same source
Description: (§1) Chip surface was regenerated after every cycle using glycine buffer pH 1.5. Measurements were acquired at 20° C. and analysed on a Biacore T100 (GE Healthcare).
B3 showed a Kd of 5.51 nM, a koff of 0.00227 s⁻¹ and a kon of 412000 M⁻¹ s⁻¹.
Binder B8 has a Kd of 5.17 nM, a koff of 0.00251 s⁻¹ and a kon of 486000 M⁻¹ s⁻¹.
With B15 the Kd was 5.13 nM, the koff was 0.00239 s⁻¹ and the kon was 466000 M⁻¹ s⁻¹.

These binders were tested against T2, human interleukin-2 (recombinant human …) (assay: SPR (Table 1)).
For B25, the Kd was 1.88 nM, the koff was 0.00711 s⁻¹ and the kon was 3.78e+06 M⁻¹ s⁻¹.

These binders were tested against T1, mouse IL-2 (assay: SPR (Table 1)).
With B26 the Kd was 5.6 nM.

The binders below were run against T2, human interleukin-2 (recombinant human …) (assay: SPR, mAb immobilized, IL-2 injected).
Description: as §1
B18 was tested, and the Kd was 2.3 nM, the koff was 0.000391 s⁻¹ and the kon was 257000 M⁻¹ s⁻¹.
For B27, the Kd was 4.2 nM, the koff was 0.000117 s⁻¹ and the kon was 30000 M⁻¹ s⁻¹.
